The values below come from PMC5667739.

This experiment has as its target GII.10 P domain (Vietnam026) (norovirus GII.10 (Vietnam026)). Briefly: crystal structure.

In turn, “GII.10 P domain (Vietnam026) (domain or fragment)” showed a stoichiometry N of 2.
